The record followed here is article PMC2748841 (Nature, 2009).

B1: cellular Prion Protein (PrP^C), full-length mouse PrP expressed on COS-7 cells (receptor)
chain: not shown
B2: Amyloid precursor-like protein 1 (APLP1) (natural protein)
chain: SLAGGSPGAAEAPGSAQVAGLCGRLTLHRDLRTGRWEPDPQRSRRCLRDPQRVLEYCRQMYPELQIARVEQATQAIPMERWCGGSRSGSCAHPHHQVVPFRCLPGEFVSEALLVPEGCRFLHQERMDQCESSTRRHQEAQEACSSQGLILHGSGMLLPCGSDRFRGVEYVCCPPPGTPDPSGTAVGDPSTRSWPPGSRVEGAEDEEEEESFPQPVDDYFVEPPQAEEEEETVPPPSSHTLAVVGKVTPTPRPTDGVDIYFGMPGEISEHEGFLRAKMDLEERRMRQINEVMREWAMADNQSKNLPKADRQALNEHFQSILQTLEEQVSGERQRLVETHATRVIALINDQRRAALEGFLAALQADPPQAERVLLALRRYLRAEQKEQRHTLRHYQHVAAVDPEKAQQMRFQVHTHLQVIEERVNQSLGLLDQNPHLAQELRPQIQELLHSEHLGPSELEAPAPGGSSEDKGGLQPPDSKDDTPMTLPKGSTEQDAASPEKEKMNPLEQYERKVNASVPRGFPFHSSEIQRDELAPAGTGVSREAVSGLLIMGAGGGSLIVLSMLLLRRKKPYGAISHGVVEVDPMLTLEEQQLRELQRHGYENPTYRFLEERP
B3: Transmembrane protein 30B (TMEM30B) (natural protein)
chain: MTWSATARGAHQPDNTAFTQQRLPAWQPLLSASIALPLFFCAGLAFIGLGLGLYYSSNGIKELEYDYTGDPGTGNCSVCAAAGQGRALPPPCSCAWYFSLPELFQGPVYLYYELTNFYQNNRRYGVSRDDAQLSGLPSALRHPVNECAPYQRSAAGLPIAPCGAIANSLFNDSFSLWHQRQPGGPYVEVPLDRSGIAWWTDYHVKFRNPPLVNGSLALAFQGTAPPPNWRRPVYELSPDPNNTGFINQDFVVWMRTAALPTFRKLYARIRQGNYSAGLPRGAYRVNITYNYPVRAFGGHKLLIFSSISWMGGKNPFLGIAYLVVGSLCILTGFVMLVVYIRYQDQDDDDEE

The target in the assay is biotin-Aβ42-oligomer (UniProt P05067). Description: binding of biotinylated ligand to transfected cells.
A word on the Kd: it is a measure of binding affinity in units of concentration. The molecule B1 returned a Kd of 92 nM.
Consider B2, for which the dissociation constant Kd turned out to be 660 nM.
Under B3 stands 720 nM.
